# Data from patent publication US20220031857A1 (OSSIANIX, published 2022).
# Where a chain is given by its changes, count along the chain named.
# T1: recombinant mouse TfR2 (mouse, UniProt Q9JKX3 103-798, limits assumed)
# T1 construct: Negative control protein
# T1 sequence (looked up): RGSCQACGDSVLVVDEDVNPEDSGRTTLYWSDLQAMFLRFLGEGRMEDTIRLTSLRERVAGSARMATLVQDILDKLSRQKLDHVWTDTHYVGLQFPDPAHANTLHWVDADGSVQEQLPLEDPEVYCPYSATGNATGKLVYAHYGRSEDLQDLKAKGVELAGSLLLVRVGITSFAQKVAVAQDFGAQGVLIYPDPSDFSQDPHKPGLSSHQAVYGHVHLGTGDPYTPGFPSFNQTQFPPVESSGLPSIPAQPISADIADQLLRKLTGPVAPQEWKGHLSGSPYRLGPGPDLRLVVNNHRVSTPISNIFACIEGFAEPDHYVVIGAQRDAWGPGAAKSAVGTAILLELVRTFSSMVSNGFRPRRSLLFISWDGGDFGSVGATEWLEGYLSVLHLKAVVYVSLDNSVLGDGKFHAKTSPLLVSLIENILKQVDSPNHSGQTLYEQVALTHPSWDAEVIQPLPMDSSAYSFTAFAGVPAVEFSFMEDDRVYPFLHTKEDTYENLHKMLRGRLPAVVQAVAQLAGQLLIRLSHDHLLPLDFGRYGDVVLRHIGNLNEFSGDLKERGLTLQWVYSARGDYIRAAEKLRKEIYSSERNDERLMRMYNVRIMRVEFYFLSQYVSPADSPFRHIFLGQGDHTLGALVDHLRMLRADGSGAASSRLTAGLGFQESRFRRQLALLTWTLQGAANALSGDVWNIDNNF
# B1: SEQ ID NO 6 (VNAR clone displayed on phage) (VNAR)
# VNAR: ARVDQTPQTITKETGESLTINCVLRDSNCALSSTYWYRKKSDSTNEESISKGGRYVETVNSGSKSFSLRINDLTVEDSGTYRCNVQWWLRCGYFKDVYGGGTVVTVNA
# notes: shark VNAR domain on M13 phage; coat-protein fusion not described
# B2: SEQ ID NO 34 (VNAR clone displayed on phage) (VNAR)
# VNAR: ARVDQTPQTITKETGESLTINCVLRDSNCDLSRTYWYRKKSGSTNEESISKGGRYVETVNSGSKSFSLRINDLVVEDSGTYRCNVAVFTRCHNQQDVYGGGTAVTVNA
# notes: as for B1
# B3: SEQ ID NO 5 (VNAR clone displayed on phage) (VNAR)
# VNAR: ARVDQTPQTITKETGESLTINCVLRDSNCALSSTYWYRKKSGSTNEENISKGGRYVETVNSGSKSFSLKINDLTVEDSGTYRCNVQKGQHLQCHVAVQDVYGGGTAVTVNA
# notes: as for B1
# B4: SEQ ID NO 8 (VNAR clone displayed on phage) (VNAR)
# VNAR: ARVDQTPQTITKETGESLTINCVLRDSNCELSSTYWYRKKSGSTNEARISKGGRYVETVNSGSKSFSLRINDLTVEDSGTYRCNVQYFLCHFVGDVYGDGTAVTVNA
# notes: as for B1
# B5: SEQ ID NO 32 (VNAR clone displayed on phage) (VNAR)
# VNAR: ARVDQTPQTITKETGESLTINCVLRDSNCALSNLYWYRKKSGSRNEESISKGGRYVETVNSGSKSFSLKINDLTVEDSGTYRCKVFGMRTHCQWVIYRITDVYGGGTAVTVNA
# notes: as for B1
# B6: SEQ ID NO 31 (VNAR clone displayed on phage) (VNAR)
# VNAR: ARVDQTPQTITKETGESLTINCVLRDSNCDLSRTYWYRKKSGSTNEESISKGGRYVETVNSGSKSFSLKINDLTVEDSGTYRCNVFLWNNYNPMDVYGGGTAVTVNA
# notes: as for B1
# B7: SEQ ID NO 40 (VNAR clone displayed on phage) (VNAR)
# VNAR: ARVDQTPQTITKETGESLTINCVLRDSNCALSSTLWYRTKSGSRNEESISKGGRYVETVNSGSKSFSLRINDLTVEDSGTYRCNVQFSYNCNFWKDVYGGGTDVTVNA
# notes: as for B1
# B8: SEQ ID NO 29 (VNAR clone displayed on phage) (VNAR)
# VNAR: ARVDQTPQTITKETGESLTINCVLRDSNCALSNLYWYRKKSGSTNEESISLGGRYVETVNSGSKSFSLRINDLTVEDSGTYRCKVSTSVPRHYDNCRQRRHDVYGGGTAVTVNA
# notes: as for B1
# B9: SEQ ID NO 38 (VNAR clone displayed on phage) (VNAR)
# VNAR: ARVDQTPQTITKETGESLTINCVLRDNNCALSSTLWYRTKSGSRNEESISKGGRYVETVNSGSKSFSLRINDLTVEDSGTYRCKVWQDSLSQPCESGCLDVYGGGTAVTVNA
# notes: as for B1
# B10: SEQ ID NO 26 (VNAR clone displayed on phage) (VNAR)
# VNAR: ARVDQTPQTITKETGESLTINCVLRDSNCALSNLYWYRKKSGSTNEENISKGGRYVETVNSGSKSFSLRINDLTVEDSGTYRCNVDVTRCTQSQDVYGGGTAVTVNA
# notes: as for B1
# B11: SEQ ID NO 27 (VNAR clone displayed on phage) (VNAR)
# VNAR: B10 VNAR with I10V, N48S, K51L, D86K, V87H, T88Y, R89V, T91M, Q94K, A102V
# notes: as for B1
# B12: SEQ ID NO 4 (VNAR clone displayed on phage) (VNAR)
# VNAR: ARVDQTPQTITKETGESLTINCVLRDSNCALSSTYWYRKKSGSTNEENISKGGRYVETVNSGSKSFSLKINDLTVEDSGTYRCNVQFTAALWCEAVLDVYGGGTVVTVNA
# notes: as for B1
# B13: SEQ ID NO 30 (VNAR clone displayed on phage) (VNAR)
# VNAR: ARVDQTPQTITKETGESLTINCVLRDSNCALSNLYWYRKKSGSTNEESISLGGRYVETVNSGSKSFSLRINDLTVEDSGTYRCNVCQWLQWYGGEMEDVYGGGTAVTVNA
# notes: as for B1
# B14: SEQ ID NO 37 (VNAR clone displayed on phage) (VNAR)
# VNAR: ARVDQTPQTITKETGESLTINCVLRDSNCALSSTLWYRTKSGSRNEESISKGGRYVETVNSGSKSFSLRINDLTVKDSGTYRCNVQQGVVATCTSKRCDVYGGGTAVTVNA
# notes: as for B1
# B15: SEQ ID NO 36 (VNAR clone displayed on phage) (VNAR)
# VNAR: ARVDQTPQTITKETGESLTINCVLRDSNCDLSRTYWYRKKSGSTNEESISKGGRYVETVNSGSKSFSLRINDLVVEDSGTYRCNVHSVSCIQRLDVYGGGTVVTVNA
# notes: as for B1
# B16: SEQ ID NO 3 (VNAR clone displayed on phage) (VNAR)
# VNAR: ARVDQTPQTITKETGESLTINCVLRDNNCALSTTYWYRKKSGSTNEENISKGGRYVETVNSGSKSFSLKINDLTVEDSGTYRCNVTGYFRSTCLWRDVYGGGTAVTVNA
# notes: as for B1
# B17: SEQ ID NO 9 (VNAR clone displayed on phage) (VNAR)
# chain: ARVDQTPQTITKETGESLTINCVLRDSNCALPSTYWYRKKSGSTNEARISKGGRYVETVNSGSKSFSLRINDLTVEDSGTIDARYRLSASAVLYQSYVDVYGGGTAVTVNA
# notes: as for B1
# B18: SEQ ID NO 41 (VNAR clone displayed on phage) (VNAR)
# VNAR: ARVDQTPQTITKETGESLTINCVLRDSNCALSSTLWYRTKSGSRNEESISKGGRYVETVNSGSKSFSLKINDLTVEDSGTYRCKVCRQCCVATCDDLSLLCDVYGDGTAVTVNA
# notes: as for B1
# B19: SEQ ID NO 33 (VNAR clone displayed on phage) (VNAR)
# VNAR: ARVDQTPQTITKETGESLTINCVLRDSNCDLSRTYWYRKKQGSTNEESISKGGRYVETVNSGSKSFSLRINDLTVEDSGTYRCNVALYHFTGCSRVQDVYGGGTVVTVNA
# notes: as for B1
# B20: SEQ ID NO 35 (VNAR clone displayed on phage) (VNAR)
# VNAR: ARVDQTPQTITKETGESLTINCVLRDSNCDLSRTYWYRKKSGSTNEESISKGGRYVETVNSGSKSFSLRINDLTVEDSGTYRCNVTWLDCHQCGASDVYGGGTVVTVNA
# notes: as for B1
# B21: SEQ ID NO 28 (VNAR clone displayed on phage) (VNAR)
# VNAR: ARVDQTPQTITKETGESLTINCVLRDSNCALSNLYWYRKKSGSTNEESISLGGRYVETVNSGSKSFSLRINDLTVKDSGTYRCNVFSFSCQLLFDVYGGGTAVTVNA
# notes: as for B1
# How the values were obtained:
# Test in all cases: phage ELISA
# [1] = molecular target: T2, recombinant human TfR1 (transferrin receptor 1) (human, UniProt P02786 89-760)
# T2 construct: Bought recombinant His-tagged protein; also called hTfR1
# [2] = molecular target: T3, recombinant mouse TfR1 (transferrin receptor 1) (mouse, UniProt Q62351 89-763)
# T3 construct: Bought recombinant His-tagged protein; also called mTfR1
# human serum albumin = molecular target: T4, human serum albumin (human, UniProt P02768 25-609)
# T4 construct: Negative control protein; also called HSA
# recombinant mouse TfR2 = molecular target: T1, recombinant mouse TfR2
# T2 sequence (P02786 89-760 limits assumed): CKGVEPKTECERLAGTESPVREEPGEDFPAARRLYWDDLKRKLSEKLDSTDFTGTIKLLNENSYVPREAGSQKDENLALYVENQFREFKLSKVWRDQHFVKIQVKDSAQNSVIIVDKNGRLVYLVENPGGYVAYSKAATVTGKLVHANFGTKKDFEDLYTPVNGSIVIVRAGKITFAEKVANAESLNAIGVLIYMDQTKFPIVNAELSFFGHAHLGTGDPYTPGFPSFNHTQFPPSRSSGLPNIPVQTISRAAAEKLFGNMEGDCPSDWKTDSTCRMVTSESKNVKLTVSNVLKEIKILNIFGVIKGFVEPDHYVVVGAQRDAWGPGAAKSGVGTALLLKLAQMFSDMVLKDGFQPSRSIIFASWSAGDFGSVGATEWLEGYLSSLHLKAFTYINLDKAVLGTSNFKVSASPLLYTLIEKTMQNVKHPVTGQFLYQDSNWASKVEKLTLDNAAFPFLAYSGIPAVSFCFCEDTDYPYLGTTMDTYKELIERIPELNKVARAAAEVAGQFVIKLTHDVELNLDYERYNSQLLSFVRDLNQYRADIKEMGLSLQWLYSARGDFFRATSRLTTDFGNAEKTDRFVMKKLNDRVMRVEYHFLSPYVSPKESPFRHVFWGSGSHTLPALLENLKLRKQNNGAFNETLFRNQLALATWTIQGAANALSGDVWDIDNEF
# T3 sequence (Q62351 89-763 limits assumed): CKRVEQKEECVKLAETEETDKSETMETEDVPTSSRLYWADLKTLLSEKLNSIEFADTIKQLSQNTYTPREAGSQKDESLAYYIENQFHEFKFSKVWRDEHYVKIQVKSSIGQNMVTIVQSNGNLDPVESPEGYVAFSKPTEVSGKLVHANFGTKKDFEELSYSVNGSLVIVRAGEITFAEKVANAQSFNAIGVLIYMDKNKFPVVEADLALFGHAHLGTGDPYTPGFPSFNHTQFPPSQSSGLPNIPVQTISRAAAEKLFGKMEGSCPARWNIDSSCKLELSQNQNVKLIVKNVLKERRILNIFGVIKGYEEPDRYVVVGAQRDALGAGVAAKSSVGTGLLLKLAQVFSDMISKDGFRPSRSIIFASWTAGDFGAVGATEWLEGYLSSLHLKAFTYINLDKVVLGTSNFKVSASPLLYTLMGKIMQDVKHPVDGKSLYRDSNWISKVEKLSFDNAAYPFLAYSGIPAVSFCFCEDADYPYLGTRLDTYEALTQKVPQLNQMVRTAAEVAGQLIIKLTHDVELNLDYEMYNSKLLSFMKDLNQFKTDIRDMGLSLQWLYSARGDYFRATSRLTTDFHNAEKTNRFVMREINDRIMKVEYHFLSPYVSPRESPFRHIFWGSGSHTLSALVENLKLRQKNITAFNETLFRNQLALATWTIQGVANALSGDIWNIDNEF
# T4 sequence (P02768 25-609 limits assumed): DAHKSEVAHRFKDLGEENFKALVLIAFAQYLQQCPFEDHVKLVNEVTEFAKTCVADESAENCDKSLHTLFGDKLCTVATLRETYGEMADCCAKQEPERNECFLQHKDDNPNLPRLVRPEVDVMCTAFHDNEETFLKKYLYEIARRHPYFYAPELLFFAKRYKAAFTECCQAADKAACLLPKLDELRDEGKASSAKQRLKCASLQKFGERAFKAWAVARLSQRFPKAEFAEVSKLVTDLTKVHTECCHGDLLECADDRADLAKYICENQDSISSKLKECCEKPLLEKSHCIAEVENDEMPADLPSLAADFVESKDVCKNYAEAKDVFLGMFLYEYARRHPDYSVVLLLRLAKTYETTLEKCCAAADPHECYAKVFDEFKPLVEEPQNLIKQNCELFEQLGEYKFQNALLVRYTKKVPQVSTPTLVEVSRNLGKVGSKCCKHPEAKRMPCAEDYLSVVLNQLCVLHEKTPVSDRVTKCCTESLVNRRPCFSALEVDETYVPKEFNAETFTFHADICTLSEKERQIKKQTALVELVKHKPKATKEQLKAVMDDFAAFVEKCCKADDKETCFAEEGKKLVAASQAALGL
Binder,binding result [1],binding result [2],binding result (human serum albumin),binding result (recombinant mouse TfR2)
B1,binds,binds,no binding,
B2,binds,binds,,no binding
B3,binds,binds,no binding,
B4,binds,binds,no binding,
B5,binds,binds,,no binding
B6,binds,binds,,
B7,binds,binds,,no binding
B8,binds,binds,,
B9,binds,binds,,no binding
B10,binds,binds,,
B11,binds,binds,,
B12,binds,binds,no binding,
B13,binds,binds,,
B14,binds,binds,,no binding
B15,binds,binds,,no binding
B16,binds,binds,no binding,
B17,binds,binds,no binding,
B18,binds,binds,,no binding
B19,binds,binds,,no binding
B20,binds,binds,,no binding
B21,binds,binds,,
